As usually defined, the Km is the concentration of substrate that gives half-maximal velocity.

Substrate in this data set: O=[N+]([O-])c1ccccc1O[C@@H]1O[C@H](CO)[C@H](O)[C@H](O)[C@H]1O
Put plainly: o-nitrophenol release, Lineweaver-Burk. The class given is biochemical, Kluyveromyces lactis. To be noted: crude extract (30 μg protein); buffer Z with 1.6 mM MgSO4; ONPG 2-12 mM.

B1: native K. lactis β-galactosidase (pSPGK1-LAC4) (Kluyveromyces lactis NRRL Y-1140) (protein)
chain: MSCLIPENLRNPKKVHENRLPTRAYYYDQDIFESLNGPWAFALFDAPLDAPDAKNLDWETAKKWSTISVPSHWELQEDWKYGKPIYTNVQYPIPIDIPNPPTVNPTGVYARTFELDSKSIESFEHRLRFEGVDNCYELYVNGQYVGFNKGSRNGAEFDIQKYVSEGENLVVVKVFKWSDSTYIEDQDQWWLSGIYRDVSLLKLPKKAHIEDVRVTTTFVDSQYQDAELSVKVDVQGSSYDHINFTLYEPEDGSKVYDASSLLNEENGNTTFSTKEFISFSTKKNEETAFKINVKAPEHWTAENPTLYKYQLDLIGSDGSVIQSIKHHVGFRQVELKDGNITVNGKDILFRGVNRHDHHPRFGRAVPLDFVVRDLILMKKFNINAVRNSHYPNHPKVYDLFDKLGFWVIDEADLETHGVQEPFNRHTNLEAEYPDTKNKLYDVNAHYLSDNPEYEVAYLDRASQLVLRDVNHPSIIIWSLGNEACYGRNHKAMYKLIKQLDPTRLVHYEGDLNALSADIFSFMYPTFEIMERWRKNHTDENGKFEKPLILCEYGHAMGNGPGSLKEYQELFYKEKFYQGGFIWEWANHGIEFEDVSTADGKLHKAYAYGGDFKEEVHDGVFIMDGLCNSEHNPTPGLVEYKKVIEPVHIKIAHGSVTITNKHDFITTDHLLFIDKDTGKTIDVPSLKPEESVTIPSDTTYVVAVLKDDAGVLKAGHEIAWGQAELPLKVPDFVTETAEKAAKINDGKRYVSVESSGLHFILDKLLGKIESLKVKGKEISSKFEGSSITFWRPPTNNDEPRDFKNWKKYNIDLMKQNIHGVSVEKGSNGSLAVVTVNSRISPVVFYYGFETVQKYTIFANKINLNTSMKLTGEYQPPDFPRVGYEFWLGDSYESFEWLGRGPGESYPDKKESQRFGLYDSKDVEEFVYDYPQENGNHTDTHFLNIKFEGAGKLSIFQKEKPFNFKISDEYGVDEAAHACDVKRYGRHYLRLDHAIHGVGSEACGPAVLDQYRLKAQDFNFEFDLAFE
notes: expressed in K. lactis MW190-9B (lac4-8); crude cell-free extract
In the case of B1, the Km is 1500 µM.

Source of the values: PMC1764428, “Secretion and properties of a hybrid Kluyveromyces lactis-Aspergillus niger β-galactosidase” (Microbial Cell Factories, 2006).
